Data as given in patent US12702716B2, “Monocyte-specific aptamers and uses thereof for delivering therapeutic agents to heart” (Academia Sinica, priority 2020, dated 2026).

How the values were obtained:
[1] = test system: RAW264.7 monocyte cell line; assay: Flow cytometry binding of Cy5-labeled aptamers to RAW264.7; design: species or system mouse; conditions: 200 nM Cy5-aptamer, 4° C., 30 minutes; FIG. 2A
Procedure: (§1) Cy5-labeled J10 and S2 were also incubated with the mouse endothelial cell line SVEC which was used as a negative selection. In brief, 5×10^5 of each selected cell line was pre-mixed in a bloc king buffer (20% FBS and 10% salmon sperm DNA in PBS) at 4° C. for 30 minutes. After that, the cells were reacted with 200 nM Cy5-J10 or Cy5-S2 in the blocking buffer at 4° C. for 30 minutes. Finally, the sample was subjected to flow cytometry using standard protocols known in the art.

[2] = test system: J774A.1 monocyte cell line; assay: Flow cytometry binding of Cy5-labeled aptamers to J774A.1; design: species or system mouse; conditions: 200 nM Cy5-aptamer, 4° C., 30 minutes; FIG. 2A
Procedure: as §1

[3] = test system: mouse endothelial cell line SVEC; assay: Flow cytometry binding of Cy5-labeled aptamers to SVEC (negative selection); conditions: 200 nM Cy5-aptamer, 4° C., 30 minutes; FIG. 2A
Procedure: as §1

[4] = test system: human monocyte cell line THP-1; assay: Flow cytometry binding of Cy5-labeled aptamers to THP-1; conditions: 200 nM Cy5-aptamer, 4° C., 30 minutes; FIG. 3
Procedure: as §1, with “To confirm that J10 binding, but not S2 binding, was selective to human monocytes in vitro, Cy5-labeled” for “Cy5-labeled”, “the human monocyte cell lines, THP-1 and U937, and human umbilical cord” for “the mouse”, “endothelial cells (HUVEC),” for “endothelial cell line SVEC”, “which were” for “which was”, “negative control.” for “negative selection.”

[5] = test system: human monocyte cell line U937; assay: Flow cytometry binding of Cy5-labeled aptamers to U937; conditions: 200 nM Cy5-aptamer, 4° C., 30 minutes; FIG. 3
Procedure: as §1, with “To confirm that J10 binding, but not S2 binding, was selective to human monocytes in vitro, Cy5-labeled” for “Cy5-labeled”, “the human monocyte cell lines, THP-1 and U937, and human umbilical cord” for “the mouse”, “endothelial cells (HUVEC),” for “endothelial cell line SVEC”, “which were” for “which was”, “negative control.” for “negative selection.”

[6] = test system: human umbilical cord endothelial cells (HUVEC); assay: Flow cytometry binding of Cy5-labeled aptamers to HUVEC (negative control); conditions: 200 nM Cy5-aptamer, 4° C., 30 minutes; FIG. 3
Procedure: as §1, with “To confirm that J10 binding, but not S2 binding, was selective to human monocytes in vitro, Cy5-labeled” for “Cy5-labeled”, “the human monocyte cell lines, THP-1 and U937, and human umbilical cord” for “the mouse”, “endothelial cells (HUVEC),” for “endothelial cell line SVEC”, “which were” for “which was”, “negative control.” for “negative selection.”

[7] = test system: infarct area of the injured hearts; conditions: mouse, iv
Procedure: as §1
To generate the murine I/R models, 8-10 weeks old mice were anesthetised with 80 mg/kg Zoletil 50 and 3.5 mg/kg Rompun and given O2 via a tracheal tube on the 37° C. heating pad. The heart was accessed via left thoracotomy between the third and fourth ribs. The left anterior descending coronary artery was temporarily ligated with sutures 7-0 polypropylene through polyethylene-10 tubing for 45 minutes. Subsequently, polyethylene-10 tubing was removed to induce myocardial ischemia/reperfusion injury. The success of the surgery was evaluated by echocardiography on the following day.

[8] = test system: circulating myeloid cells (CD45+ CD11b+ cells); assay: Ex vivo binding to peripheral blood cells by flow cytometry; design: species or system mouse; conditions: 2 μM Cy5-Apt, 30 minutes at 4° C., peripheral blood of healthy mice; FIG. 2D
Procedure: To test for ex vivo binding specificity and affinity, 100 μL peripheral blood from healthy mice was withdrawn via the submandibular vein, collected in EDTA-containing anticoagulant tubes (BD Vacutainer), and incubated with 2 mL ACK lysing buffer for 10 minutes to lyse the red blood cells. After that, 2% FBS in PBS was added to stop the reaction. Following centrifugation (300 g for 3 minutes at 4° C.) the supernatants were removed. One million cells were blocked by CD16/CD32 Fc blocking antibody (1:100; Invitrogen) after incubation for 20 minutes. Then the cells were stained for CD45 (PE-Cy7; 1:100; Biolegend), CD11b (PE; 1:200; Biolegend) and 2 μM Cy5-Apt for 30 minutes at 4° C. Finally, the cells were washed by 2% FBS in PBS and subjected to flow cytometry using standard protocols known in the art.

B1: S2: control aptamer, scrambled J10 sequence with same nucleotide composition, SEQ ID NO. 5 (nucleic acid)
DNA: CAATAGAGTCGTACAGGTCGTGAGAAGGCGTTGGTCTATCGGGGTCGTGGACTGTCCAAGGGCATGACCGGTCTGACGGTGGCCAGAGACGCAGGAGGGG
modifications: DNA, backbone and methylation of C not given here; Cy5 label
- percentage of Cy5-labeled monocytes (RAW264.7) [1]: but not S2, was capable of binding selectively to monocytes in vitro
- percentage of Cy5-labeled monocytes (J774A.1) [2]: but not S2, was capable of binding selectively to monocytes in vitro
- detection of Cy5-labeled aptamer in SVEC [3]: no detection
- binding affinity to THP-1 [4]: no binding affinity
- binding affinity to U937 [5]: no binding affinity
- binding affinity to HUVEC [6]: no binding affinity

B2: J10: monocyte-specific DNA aptamer from cell-SELEX, SEQ ID NO. 4 (Table 2); Cy5-labeled for flow cytometry (nucleic acid)
DNA: CAATAGAGTCGTACAGGTCGACGCTCGGATGCCACTACAGGGATGGGAGGGAGGGGGCTCGTGGCGGCTAGGGGGTATAACTCATGGACGTGCTGGTGAC
modifications: DNA, backbone and methylation of C not given here; Cy5 label
- percentage of Cy5-labeled monocytes (RAW264.7) [1]: significantly higher than the percentage of Cy5-labeled S2 monocytes
- percentage of Cy5-labeled monocytes (J774A.1) [2]: significantly higher than the percentage of Cy5-labeled S2 monocytes
- detection of Cy5-labeled aptamer in SVEC [3]: no detection
- in vivo targeting of aptamer to the injured site (PCR) [7]: confirmed in vivo targeting ability
- binding affinity to THP-1 [4]: high binding affinity
- binding affinity to U937 [5]: high binding affinity
- binding affinity to HUVEC [6]: but not human endothelial cell line HUVEC
- affinity to circulating myeloid cells (CD45+ CD11b+ cells) [8]: high affinity
